Results as given in patent US20160311917A1 (Novartis, published 2016).
Substitutions are numbered along the chain they refer to.

T1: recombinant human biotinylated mesothelin extracellular domain with C-terminal Avi-Tag (human, site selectively biotinylated in vitro with BirA enzyme at the C-terminal Avi-Tag)
T1 construct: Produced in HEK293F cells; as printed it includes a His tag and the Avi-Tag; Immobilised on a streptavidin sensor chip for SPR; also called human MSLN ECD; human mesothelin ECD
T1 chain: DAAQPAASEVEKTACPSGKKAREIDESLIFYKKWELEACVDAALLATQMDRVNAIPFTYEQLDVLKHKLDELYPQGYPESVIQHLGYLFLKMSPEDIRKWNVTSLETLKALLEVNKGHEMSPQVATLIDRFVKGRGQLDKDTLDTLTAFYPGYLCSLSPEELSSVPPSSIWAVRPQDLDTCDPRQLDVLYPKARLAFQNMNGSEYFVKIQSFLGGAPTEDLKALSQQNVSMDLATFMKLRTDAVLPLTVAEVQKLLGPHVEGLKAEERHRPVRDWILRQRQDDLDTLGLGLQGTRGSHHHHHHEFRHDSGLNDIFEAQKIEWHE

T2: Glycosylation Deficient Mesothelin (296-588; N388Q, N496Q, N523Q) (human)
T2 construct: It already carries N388Q, N496Q and N523Q; also called hMSLN296-588; human mesothelin(296-588)
T2 chain: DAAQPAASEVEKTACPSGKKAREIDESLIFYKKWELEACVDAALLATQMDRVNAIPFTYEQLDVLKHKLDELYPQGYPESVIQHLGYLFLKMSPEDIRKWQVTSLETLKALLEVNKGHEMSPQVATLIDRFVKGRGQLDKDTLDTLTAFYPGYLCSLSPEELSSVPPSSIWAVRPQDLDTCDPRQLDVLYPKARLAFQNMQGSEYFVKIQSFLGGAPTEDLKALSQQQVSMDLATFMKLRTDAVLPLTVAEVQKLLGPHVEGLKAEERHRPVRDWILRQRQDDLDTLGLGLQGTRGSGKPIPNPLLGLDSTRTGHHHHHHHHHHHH

B1: M14 scFv (human anti-mesothelin scFv, soluble, His-tagged) (scFv)
scFv: QVQLVQSGAEVRAPGASVKISCKASGFTFRGYYIHWVRQAPGQGLEWMGIINPSGGSRAYAQKFQGRVTMTRDTSTSTVYMELSSLRSDDTAMYYCARTASCGGDCYYLDYWGQGTLVTVSSGGGGSGGGGSGGGGSGGGGSDIQMTQSPPTLSASVGDRVTITCRASENVNIWLAWYQQKPGKAPKLLIYKSSSLASGVPSRFSGSGSGAEFTLTISSLQPDDFATYYCQQYQSYPLTFGGGTKVDIKGSHHHHHHHH
notes: also called BS83-95ID
B2: M16 scFv (human anti-mesothelin scFv, soluble, His-tagged) (scFv)
scFv: EVQLVESGGGLVQPGRSLRLSCAASGFTFDDYAMHWVRQAPGKGLEWVSGISWNSGSTGYADSVKGRFTISRDNAKNSLYLQMNSLRAEDTALYYCAKDSSSWYGGGSAFDIWGQGTMVTVSSGGGGSGGGGSGGGGSSSELTQEPAVSVALGQTVRITCQGDSLRSYYASWYQQKPGQAPVLVIFGRSRRPSGIPDRFSGSSSGNTASLIITGAQAEDEADYYCNSRDNTANHYVFGTGTKLTVLGSHHHHHHHH
notes: also called XS87-99RD
B3: M17 scFv (human anti-mesothelin scFv, soluble, His-tagged) (scFv)
scFv: EVQLVESGGGLVQPGRSLRLSCAASGFTFDDYAMHWVRQAPGKGLEWVSGISWNSGSTGYADSVKGRFTISRDNAKNSLYLQMNSLRAEDTALYYCAKDSSSWYGGGSAFDIWGQGTMVTVSSGGGGSGGGGSGGGGSSSELTQDPAVSVALGQTVRITCQGDSLRSYYASWYQQKPGQAPVLVIYGKNNRPSGIPDRFSGSSSGNTASLTITGAQAEDEADYYCNSRGSSGNHYVFGTGTKVTVLGSHHHHHHHH
notes: also called NS89-94MD
B4: M5 scFv (human anti-mesothelin scFv, soluble, His-tagged) (scFv)
scFv: QVQLVQSGAEVEKPGASVKVSCKASGYTFTDYYMHWVRQAPGQGLEWMGWINPNSGGTNYAQKFQGRVTMTRDTSISTAYMELSRLRSDDTAVYYCASGWDFDYWGQGTLVTVSSGGGGSGGGGSGGGGSGGGGSDIVMTQSPSSLSASVGDRVTITCRASQSIRYYLSWYQQKPGKAPKLLIYTASILQNGVPSRFSGSGSGTDFTLTISSLQPEDFATYYCLQTYTTPDFGPGTKVEIKGSHHHHHHHH
notes: also called scFv M5; XP31-20LC
B5: M23 scFv (human anti-mesothelin scFv, soluble, His-tagged) (scFv)
scFv: QVQLQQSGAEVKKPGASVKVSCKASGYTFTNYYMHWVRQAPGQGLEWMGIINPSGGYTTYAQKFQGRLTMTRDTSTSTVYMELSSLRSEDTAVYYCARIRSCGGDCYYFDNWGQGTLVTVSSGGGGSGGGGSGGGGSGGGGSDIQLTQSPSTLSASVGDRVTITCRASENVNIWLAWYQQKPGKAPKLLIYKSSSLASGVPSRFSGSGSGAEFTLTISSLQPDDFATYYCQQYQSYPLTFGGGTKVDIKGSHHHHHHHH
notes: also called XH66-84HE
B6: M12 scFv (human anti-mesothelin scFv, soluble, His-tagged) (scFv)
scFv: QVQLVQSGAEVKKPGASVKVSCKASGYTFTGYYMHWVRQAPGQGLEWMGRINPNSGGTNYAQKFQGRVTMTTDTSTSTAYMELRSLRSDDTAVYYCARTTTSYAFDIWGQGTMVTVSSGGGGSGGGGSGGGGSGGGGSDIQLTQSPSTLSASVGDRVTITCRASQSISTWLAWYQQKPGKAPNLLIYKASTLESGVPSRFSGSGSGTEFTLTISSLQPDDFATYYCQQYNTYSPYTFGQGTKLEIKGSHHHHHHHH
notes: also called DE12-14RD
B7: M11 scFv (human anti-mesothelin scFv, soluble, His-tagged) (scFv)
scFv: B4 scFv with V5Q, E12K, D31G, K63N, S84R, V138R
notes: also called NE10-19WD
B8: M21 scFv (human anti-mesothelin scFv, soluble, His-tagged) (scFv)
scFv: QVQLVQSWAEVKKPGASVKVSCKASGYTFTSYYMHWVRQAPGQGLEWMGIINPSGGSTSYAQKFQGRVTMTRDTSTSTVYMELSNLRSEDTAVYYCARSPRVTTGYFDYWGQGTLVTVSSGGGGSGGGGSGGGGSGGGGSDIQLTQSPSTLSASVGDRVTITCRASQSISSWLAWYQQKPGKAPKLLIYKASSLESGVPSRFSGSGSGTEFTLTISSLQPDDFATYYCQQYSSYPLTFGGGTRLEIKGSHHHHHHHH
notes: also called MM21; ZS95-03QD

Target: T1, recombinant human biotinylated …
Test: SPR, Biacore T200; biotinylated mesothelin ECD on streptavidin chip, scFv injected; 1:1 binding model
Method: (§1) Binding affinity of purified scFvs was measured on a Biacore T200 system. Briefly, recombinant human biotinylated mesothelin ECD was immobilized on a streptavidin (SA) sensor chip surface at a density of 150 RU. Purified scFv was injected over the chip under constant flow rate at three-fold serial dilutions. Association and dissociation rates of the protein complex were monitored for 270 seconds and 400 seconds, respectively. Double referencing was performed against a blank immobilized flow cell and a buffer blank. Affinity was determined with a Langmuir 1:1 binding model when possible, for those scFVs where accurate fitting was not possible due to fast on and off rates, the steady state model was used.

| Kd [nM] | koff [s⁻¹] | kon [M⁻¹ s⁻¹] | Binder |
| --- | --- | --- | --- |
| 0.9 | 0.00251 | 2.75e+06 | B1 |
| 22.7 | 0.00395 | 174000 | B2 |
| 27.8 | 0.0145 | 522000 | B3 |
| 26.9 | 0.00113 | 42000 | B4 |

Target: T1, recombinant human biotinylated …
Test: SPR, Biacore T200; biotinylated mesothelin ECD on streptavidin chip, scFv injected; steady state affinity model
Method: as §1

| Kd [nM] | Binder |
| --- | --- |
| 114 | B5 |
| 307 | B6 |
| 64.7 | B7 |
| 110 | B8 |

Target: T2, Glycosylation Deficient Mesothelin …
Test: Hydrogen-deuterium exchange mass spectrometry: difference in deuterium uptake of the co-expressed complex against unbound mesothelin, peptides 456-586
Method: For hMSLN₂₉₆₋₅₈₈ deuterium labeling experiments in the absence of antibody, 400 pmol of hMSLN₂₉₆₋₅₈₈, volume of 6.9 was diluted using 100 μl of the deuterium buffer for 15 minutes at 4° C. The labeling reaction was then quenched with 100 μl of chilled quench buffer at 2° C. for three minutes followed by injected onto the LC-MS system for automated pepsin digestion and peptide analysis.
The labeling reaction was then quenched with 100 μl of chilled quench buffer at 2° C. for three minutes followed by injected onto the LC-MS system for automated pepsin digestion and peptide analysis. […] The labeling reaction was then quenched with 100 μl of chilled quench buffer at 2° C. for three minutes, and then injected onto the LC-MS system for automated pepsin digestion and peptide analysis.
All deuterium exchange experiments were quenched using 0.5 M TCEP and 3 M urea (pH=2.6). After quenching, the exchanged antigen was subjected to on-line pepsin digestion using a Poroszyme Immobilized Pepsin column (2.1×30 mm) at 12° C. followed by trapping on a Waters Vanguard HSS T3 trapping column.

| binding result | Binder |
| --- | --- |
| binds | B4 |
